Test results reported in PMC9991925 (2022).

Columns and labels:
recombinant mouse TfR = recombinant mouse TfR (mouse, UniProt Q62351 1-763); test: ELISA
Fc(aMD4)T3 = test: SPR
Fc(aMD4)T1 = Fc(aMD4)T1 (human, UniProt P01857 104-330 = IgG part); test: SPR
Fc(aMD4)B2 = Fc(aMD4)B2 (human, UniProt P01857 104-330 = IgG part); test: SPR
Fc(aMD4ds)T1 = Fc(aMD4ds)T1 (human, UniProt P01857 104-330 = IgG part); test: SPR
Fc(aMD4)T2 = Fc(aMD4)T2 (human, UniProt P01857 104-330 = IgG part); test: SPR
Fc(aMD4)B3 = Fc(aMD4)B3 (human, UniProt P01857 104-330 = IgG part); test: SPR
Fc(aMD4)B1 = Fc(aMD4)B1 (human, UniProt P01857 104-330 = IgG part); test: SPR
Fc(aMD4ds)B3 = Fc(aMD4ds)B3 (human, UniProt P01857 104-330 = IgG part); test: SPR
Fc(aMD4)M2 = Fc(aMD4)M2 (human, UniProt P01857 104-330 = IgG part); test: SPR

Sequence of recombinant mouse TfR (Q62351 89-763): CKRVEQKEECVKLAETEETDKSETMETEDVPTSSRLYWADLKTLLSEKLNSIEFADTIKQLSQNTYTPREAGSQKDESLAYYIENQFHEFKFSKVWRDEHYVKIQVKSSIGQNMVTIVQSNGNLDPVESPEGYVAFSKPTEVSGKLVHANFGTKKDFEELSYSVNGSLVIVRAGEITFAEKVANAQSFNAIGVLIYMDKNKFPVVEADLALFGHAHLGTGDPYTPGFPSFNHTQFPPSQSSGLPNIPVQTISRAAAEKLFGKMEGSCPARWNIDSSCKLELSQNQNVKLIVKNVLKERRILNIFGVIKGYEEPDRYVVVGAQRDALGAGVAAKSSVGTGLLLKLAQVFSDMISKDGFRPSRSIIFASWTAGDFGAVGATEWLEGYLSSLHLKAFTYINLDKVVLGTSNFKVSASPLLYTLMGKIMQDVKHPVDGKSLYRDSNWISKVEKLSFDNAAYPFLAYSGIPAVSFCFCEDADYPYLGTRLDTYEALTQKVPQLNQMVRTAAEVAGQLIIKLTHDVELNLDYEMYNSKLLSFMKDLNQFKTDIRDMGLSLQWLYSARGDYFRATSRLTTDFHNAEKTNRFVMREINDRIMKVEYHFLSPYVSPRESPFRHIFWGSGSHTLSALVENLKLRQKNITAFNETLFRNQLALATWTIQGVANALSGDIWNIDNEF

Kd (recombinant mouse TfR) [nM] | Kd (Fc(aMD4)T3) [nM] | Kd (Fc(aMD4)T1) [nM] | Kd (Fc(aMD4)B2) [nM] | Kd (Fc(aMD4ds)T1) [nM] | Kd (Fc(aMD4)T2) [nM] | Kd (Fc(aMD4)B3) [nM] | Kd (Fc(aMD4)B1) [nM] | Kd (Fc(aMD4ds)B3) [nM] | Kd (Fc(aMD4)M2) [nM] | Binder
30.8 | – | – | – | – | – | – | – | – | – | sTfR(aMD4) (antibody, V domains shown) VH: EVQLVESGGGLVQPGNSLTLSCVASGFTFSNYGMHWIRQAPKKGLEWIAMIYYDSSKMNYADTVKGRFTISRDNSKNTLYLEMNSLRSEDTAMYYCAVPTSHYVVDVWGQGVSVTVSS VL: DIQMTQSPASLSASLEEIVTITCQASQDIGNWLAWYQQKPGKSPQLLIYGATSLADGVPSRFSGSRSGTQFSLKISRVQVEDIGIYYCLQAYNTPWTFGGGTKLELK
0.36 | – | – | – | – | – | – | – | – | – | dTfR(aMD4) (antibody, V domains shown) VH: EVQLVESGGGLVQPGNSLTLSCVASGFTFSNYGMHWIRQAPKKGLEWIAMIYYDSSKMNYADTVKGRFTISRDNSKNTLYLEMNSLRSEDTAMYYCAVPTSHYVVDVWGQGVSVTVSS VL: DIQMTQSPASLSASLEEIVTITCQASQDIGNWLAWYQQKPGKSPQLLIYGATSLADGVPSRFSGSRSGTQFSLKISRVQVEDIGIYYCLQAYNTPWTFGGGTKLELK
– | 652 | 75.8 | 79.1 | 73.4 | 401 | 4 | 10.8 | 3.7 | 18.9 | ectodomain fragment of human Met (MetECD, 1-931), biotinylated (domain or fragment, biotin on the biotin acceptor sequence (BirA-mediated)) ECKEALAKSEMNVNMKYQLPNFTAETPIQNVILHEHHIFLGATNYIYVLNEEDLQKVAEYKTGPVLEHPDCFPCQDCSSKANLSGGVWKDNINMALVVDTYYDDQLISCGSVNRGTCQRHVFPHNHTADIQSEVHCIFSPQIEEPSQCPDCVVSALGAKVLSSVKDRFINFFVGNTINSSYFPDHPLHSISVRRLKETKDGFMFLTDQSYIDVLPEFRDSYPIKYVHAFESNNFIYFLTVQRETLDAQTFHTRIIRFCSINSGLHSYMEMPLECILTEKRKKRSTKKEVFNILQAAYVSKPGAQLARQIGASLNDDILFGVFAQSKPDSAEPMDRSAMCAFPIKYVNDFFNKIVNKNNVRCLQHFYGPNHEHCFNRTLLRNSSGCEARRDEYRTEFTTALQRVDLFMGQFSEVLLTSISTFIKGDLTIANLGTSEGRFMQVVVSRSGPSTPHVNFLLDSHPVSPEVIVEHTLNQNGYTLVITGKKITKIPLNGLGCRHFQSCSQCLSAPPFVQCGWCHDKCVRSEECLSGTWTQQICLPAIYKVFPNSAPLEGGTRLTICGWDFGFRRNNKFDLKKTRVLLGNESCTLTLSESTMNTLKCTVGPAMNKHFNMSIIISNGHGTTQYSTFSYVDPVITSISPKYGPMAGGTLLTLTGNYLNSGNSRHISIGGKTCTLKSVSNSILECYTPAQTISTEFAVKLKIDLANRETSIFSYREDPIVYEIHPTKSFISGGSTITGVGKNLNSVSVPRMVINVHEAGRNFTVACQHRSNSEIICCTTPSLQQLNLQLPLKTKAFFMLDGILSKYFDLIYVHNPVFKPFEKPVMISMGNENVLEIKGNDIDPEAVKGEVLKVGNKSCENIHLHSEAVLCTVPNDLLKLNSELNIEWKQAISSTVLGKVIVQPDQNF
